Assay results reported in patent publication US12449421 (SICHUAN CANCER HOSPITAL, dated 2025).

T1: recombinant human CD79B extracellular domain (amino acids 29-159), huCD79B (human, UniProt P40259 29-159)
T1 construct: Immunogen and SPR analyte; No tag or fusion partner is stated; also called human CD79B antigen; CD79B antigen
T1 sequence: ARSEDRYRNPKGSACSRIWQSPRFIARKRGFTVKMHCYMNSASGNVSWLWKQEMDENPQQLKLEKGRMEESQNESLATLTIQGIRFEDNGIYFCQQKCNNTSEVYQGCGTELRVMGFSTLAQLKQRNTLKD

B1: LBP2-CD79B (anti-CD79B recombinant rabbit monoclonal antibody) (antibody, V domains shown)
VH: QSLEESGGRLVTPGGSLTLTCTVSGIDLSTNVMRWVRQAPGKGLEWIGSMLISGNIYYASWAKGRLTISKTSSTTVDLKMTSLTAADTATYFCTRGRLWGQGTLVTVSS
VL: AQVLTQTPSSVSAAVGGTVTINCQSSQSVWANNYLAWYQQKPGQPPKILIASASTLASGVSSRFKGSGSGTQFTLTISDVQCDDAATYYCLGSYDCSSADCNAFGGGTEVVVKG
notes: the light chain variable region begins QVLTQTP; also called Anti-CD79B Protein Monoclonal Antibody; LBP2-CD79B monoclonal antibody

Tests used:
[1] = molecular target: CD79B protein as expressed in Daudi cells and diffuse large B-cell lymphoma tissue (UniProt P40259); experiment: immunohistochemistry on 69 diffuse large B-cell lymphoma tissue cases; share of cases stained positive
[2] = molecular target: recombinant human CD79B extracellular domain (amino acids 29-159), huCD79B (human) (UniProt P40259); experiment: Biacore SPR, antibody captured on Protein A chip, huCD79B as analyte, 1:1 kinetic model
[3] = molecular target: T1, recombinant human CD79B extracellular …; experiment: as above
Procedure: The ability of the antibody to bind to the antigen is characterized using Biacore™ Surface Plasmon Resonance (SPR). Specifically, a Protein A chip was used (with channel 1 as the reference channel and channel 2 as the ligand channel). The antibody was immobilized as the ligand in channel 2 of the Protein A chip at a concentration of 10 µg/ml, with an association time of 30 seconds and a flow rate of […].
In this embodiment, the analyte was flowed through both channel 1 and channel 2, with an association time of 60 seconds, a dissociation time of 90 seconds, and a flow rate of 30 µl/min. After the analyte injection was completed, the chip surface was regenerated using glycine buffer with a pH of 1.5. The ligand was immobilized before each analyte injection, and the chip surface was regenerated with the regeneration solution after the analyte injection was completed.
The affinity of the CD79B antibody for human CD79B antigen at the different concentrations mentioned above was determined using Biacore™ SPR. The corresponding analysis software was used to analyze the binding and dissociation with a 1:1 kinetic model.

Molecule	Pos. Rate (share of IHC-positive cases) [1] [%]	Kd [2] [nM]	koff [2] [s⁻¹]	kon [2] [M⁻¹ s⁻¹]	Kd [3] [nM]	koff [3] [s⁻¹]	kon [3] [M⁻¹ s⁻¹]
commercially available CD79B antibody (Abcam, EPR6861)	100	19.3	0.00547	283000	–	–	–
B1	–	–	–	–	0.877	0.000775	844000
